Measurements from patent US20120122239A1.

Columns and labels:
[1] = molecular target: glycosylated human proBNP (HyTest, Turku, Finland; Catalog No. 8GOB2) (human); assay: sandwich CMIA, capture 15C4, analyte 43.3 pM
[2] = molecular target: human NT-pro B-type natriuretic peptide (HyTest, Turku, Finland; Catalog No. 8NT1) (human); assay: sandwich CMIA, capture 15C4, analyte 43.3 pM
[3] = molecular target: human pro B-type natriuretic peptide (HyTest, Turku, Finland; Catalog No. 8PRO8) (human); assay: sandwich CMIA, capture 15C4, analyte 43.3 pM
[4] = molecular target: glycosylated human proBNP (HyTest, Turku, Finland; Catalog No. 8GOB2) (human); assay: sandwich CMIA, capture 15C4, analyte 86.6 pM
[5] = molecular target: human NT-pro B-type natriuretic peptide (HyTest, Turku, Finland; Catalog No. 8NT1) (human); assay: sandwich CMIA, capture 15C4, analyte 86.6 pM
[6] = molecular target: human pro B-type natriuretic peptide (HyTest, Turku, Finland; Catalog No. 8PRO8) (human); assay: sandwich CMIA, capture 15C4, analyte 86.6 pM
[7] = molecular target: glycosylated human proBNP (HyTest, Turku, Finland; Catalog No. 8GOB2) (human); assay: sandwich CMIA, capture 15F11, analyte 43.3 pM
[8] = molecular target: human NT-pro B-type natriuretic peptide (HyTest, Turku, Finland; Catalog No. 8NT1) (human); assay: sandwich CMIA, capture 15F11, analyte 43.3 pM
[9] = molecular target: human pro B-type natriuretic peptide (HyTest, Turku, Finland; Catalog No. 8PRO8) (human); assay: sandwich CMIA, capture 15F11, analyte 43.3 pM
[10] = molecular target: glycosylated human proBNP (HyTest, Turku, Finland; Catalog No. 8GOB2) (human); assay: sandwich CMIA, capture 15F11, analyte 86.6 pM
[11] = molecular target: human NT-pro B-type natriuretic peptide (HyTest, Turku, Finland; Catalog No. 8NT1) (human); assay: sandwich CMIA, capture 15F11, analyte 86.6 pM
[12] = molecular target: human pro B-type natriuretic peptide (HyTest, Turku, Finland; Catalog No. 8PRO8) (human); assay: sandwich CMIA, capture 15F11, analyte 86.6 pM
[13] = molecular target: glycosylated human proBNP (HyTest, Turku, Finland; Catalog No. 8GOB2) (human); assay: sandwich CMIA, capture 15C4, analyte 288.7 pM
[14] = molecular target: human NT-pro B-type natriuretic peptide (HyTest, Turku, Finland; Catalog No. 8NT1) (human); assay: sandwich CMIA, capture 15C4, analyte 288.7 pM
[15] = molecular target: human pro B-type natriuretic peptide (HyTest, Turku, Finland; Catalog No. 8PRO8) (human); assay: sandwich CMIA, capture 15C4, analyte 288.7 pM
[16] = molecular target: glycosylated human proBNP (HyTest, Turku, Finland; Catalog No. 8GOB2) (human); assay: sandwich CMIA, capture 15C4, analyte 577.4 pM
[17] = molecular target: human NT-pro B-type natriuretic peptide (HyTest, Turku, Finland; Catalog No. 8NT1) (human); assay: sandwich CMIA, capture 15C4, analyte 577.4 pM
[18] = molecular target: human pro B-type natriuretic peptide (HyTest, Turku, Finland; Catalog No. 8PRO8) (human); assay: sandwich CMIA, capture 15C4, analyte 577.4 pM
[19] = molecular target: glycosylated human proBNP (HyTest, Turku, Finland; Catalog No. 8GOB2) (human); assay: sandwich CMIA, capture 15F11, analyte 288.7 pM
[20] = molecular target: human NT-pro B-type natriuretic peptide (HyTest, Turku, Finland; Catalog No. 8NT1) (human); assay: sandwich CMIA, capture 15F11, analyte 288.7 pM
[21] = molecular target: human pro B-type natriuretic peptide (HyTest, Turku, Finland; Catalog No. 8PRO8) (human); assay: sandwich CMIA, capture 15F11, analyte 288.7 pM
[22] = molecular target: glycosylated human proBNP (HyTest, Turku, Finland; Catalog No. 8GOB2) (human); assay: sandwich CMIA, capture 15F11, analyte 577.4 pM
[23] = molecular target: human NT-pro B-type natriuretic peptide (HyTest, Turku, Finland; Catalog No. 8NT1) (human); assay: sandwich CMIA, capture 15F11, analyte 577.4 pM
[24] = molecular target: human pro B-type natriuretic peptide (HyTest, Turku, Finland; Catalog No. 8PRO8) (human); assay: sandwich CMIA, capture 15F11, analyte 577.4 pM
[25] = molecular target: glycosylated human proBNP (HyTest, Turku, Finland; Catalog No. 8GOB2) (human); assay: sandwich CMIA, capture 15C4, analyte 0.0 pM (blank)
[26] = molecular target: human NT-pro B-type natriuretic peptide (HyTest, Turku, Finland; Catalog No. 8NT1) (human); assay: as above
[27] = molecular target: human pro B-type natriuretic peptide (HyTest, Turku, Finland; Catalog No. 8PRO8) (human); assay: as above
[28] = molecular target: glycosylated human proBNP (HyTest, Turku, Finland; Catalog No. 8GOB2) (human); assay: sandwich CMIA, capture 15F11, analyte 0.0 pM (blank)
[29] = molecular target: human NT-pro B-type natriuretic peptide (HyTest, Turku, Finland; Catalog No. 8NT1) (human); assay: as above
[30] = molecular target: human pro B-type natriuretic peptide (HyTest, Turku, Finland; Catalog No. 8PRO8) (human); assay: as above
[31] = molecular target: glycosylated human proBNP (HyTest, Turku, Finland; Catalog No. 8GOB2) (human); assay: sandwich CMIA, capture 15C4, 43.3 pM, against human NT-proBNP
[32] = molecular target: human pro B-type natriuretic peptide (HyTest, Turku, Finland; Catalog No. 8PRO8) (human); assay: as above
[33] = molecular target: glycosylated human proBNP (HyTest, Turku, Finland; Catalog No. 8GOB2) (human); assay: sandwich CMIA, capture 15C4, 86.6 pM, against human NT-proBNP
[34] = molecular target: human pro B-type natriuretic peptide (HyTest, Turku, Finland; Catalog No. 8PRO8) (human); assay: as above
[35] = molecular target: glycosylated human proBNP (HyTest, Turku, Finland; Catalog No. 8GOB2) (human); assay: sandwich CMIA, capture 15C4, 288.7 pM, against human NT-proBNP
[36] = molecular target: human pro B-type natriuretic peptide (HyTest, Turku, Finland; Catalog No. 8PRO8) (human); assay: as above
[37] = molecular target: glycosylated human proBNP (HyTest, Turku, Finland; Catalog No. 8GOB2) (human); assay: sandwich CMIA, capture 15C4, 577.4 pM, against human NT-proBNP
[38] = molecular target: human pro B-type natriuretic peptide (HyTest, Turku, Finland; Catalog No. 8PRO8) (human); assay: as above
[39] = molecular target: human pro B-type natriuretic peptide (HyTest, Turku, Finland; Catalog No. 8PRO8) (human); assay: sandwich CMIA, 15C4 (63-71) with 16F3 (13-20), against human NT-proBNP
[40] = molecular target: human pro B-type natriuretic peptide (HyTest, Turku, Finland; Catalog No. 8PRO8) (human); assay: sandwich CMIA, capture 15F11, against human NT-proBNP
[41] = molecular target: glycosylated human proBNP (HyTest, Turku, Finland; Catalog No. 8GOB2) (human); assay: sandwich CMIA, capture 15F11, 43.3 pM, against human NT-proBNP
[42] = molecular target: human pro B-type natriuretic peptide (HyTest, Turku, Finland; Catalog No. 8PRO8) (human); assay: as above
[43] = molecular target: glycosylated human proBNP (HyTest, Turku, Finland; Catalog No. 8GOB2) (human); assay: sandwich CMIA, capture 15F11, 86.6 pM, against human NT-proBNP
[44] = molecular target: human pro B-type natriuretic peptide (HyTest, Turku, Finland; Catalog No. 8PRO8) (human); assay: as above
[45] = molecular target: glycosylated human proBNP (HyTest, Turku, Finland; Catalog No. 8GOB2) (human); assay: sandwich CMIA, capture 15F11, 288.7 pM, against human NT-proBNP
[46] = molecular target: human pro B-type natriuretic peptide (HyTest, Turku, Finland; Catalog No. 8PRO8) (human); assay: as above
[47] = molecular target: glycosylated human proBNP (HyTest, Turku, Finland; Catalog No. 8GOB2) (human); assay: sandwich CMIA, capture 15F11, 577.4 pM, against human NT-proBNP
[48] = molecular target: human pro B-type natriuretic peptide (HyTest, Turku, Finland; Catalog No. 8PRO8) (human); assay: as above

Sequence of human NT-pro B-type natriuretic peptide (HyTest, Turku, Finland; Catalog No. 8NT1) (human) (chain, as listed by the source): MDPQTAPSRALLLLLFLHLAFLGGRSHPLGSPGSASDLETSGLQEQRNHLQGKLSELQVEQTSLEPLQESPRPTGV
Sequence of human pro B-type natriuretic peptide (HyTest, Turku, Finland; Catalog No. 8PRO8) (human) (chain, as listed by the source): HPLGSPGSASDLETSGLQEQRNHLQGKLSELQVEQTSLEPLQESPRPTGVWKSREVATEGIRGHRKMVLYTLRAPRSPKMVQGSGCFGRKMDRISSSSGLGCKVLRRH

| Analyte rlus [1] [rlus] | Analyte rlus [2] [rlus] | Analyte rlus [3] [rlus] | Analyte rlus [4] [rlus] | Analyte rlus [5] [rlus] | Analyte rlus [6] [rlus] | Analyte rlus [7] [rlus] | Analyte rlus [8] [rlus] | Analyte rlus [9] [rlus] | Analyte rlus [10] [rlus] | Analyte rlus [11] [rlus] | Analyte rlus [12] [rlus] | Analyte rlus [13] [rlus] | Analyte rlus [14] [rlus] | Analyte rlus [15] [rlus] | Analyte rlus [16] [rlus] | Analyte rlus [17] [rlus] | Analyte rlus [18] [rlus] | Analyte rlus [19] [rlus] | Analyte rlus [20] [rlus] | other results | Substance |
| --- | --- | --- | --- | --- | --- | --- | --- | --- | --- | --- | --- | --- | --- | --- | --- | --- | --- | --- | --- | --- | --- |
| 691 | 11400 | 1990 | 861 | 26500 | 4060 | 586 | 630 | 624 | 587 | 592 | 621 | 827 | 140000 | 13700 | 1090 | 320000 | 34700 | 643 | 696 | Analyte rlus [21]: 720 rlus; Analyte rlus [22]: 635 rlus; Analyte rlus [23]: 631 rlus; Analyte rlus [24]: 914 rlus; Analyte rlus [25]: 1040 rlus; Analyte rlus [26]: 1040 rlus; Analyte rlus [27]: 1040 rlus; Analyte rlus [28]: 640 rlus; Analyte rlus [29]: 640 rlus; Analyte rlus [30]: 640 rlus; % Cross-reactivity [31]: -3.3%; % Cross-reactivity [32]: 9.2%; % Cross-reactivity [33]: -0.7%; % Cross-reactivity [34]: 11.9%; % Cross-reactivity [35]: -0.2%; % Cross-reactivity [36]: 9.1%; % Cross-reactivity [37]: 0%; % Cross-reactivity [38]: 10.6%; % Cross-reactivity [39]: 10% | anti-human NT-proBNP/anti-human proBNP labeled monoclonal antibody 16F3 (HyTest, Turku, Finland) |
| 781 | 786 | 718 | 751 | 699 | 747 | 863 | 7380 | 904 | 918 | 20800 | 938 | 725 | 814 | 834 | 770 | 850 | 735 | 906 | 124000 | Analyte rlus [21]: 1090 rlus; Analyte rlus [22]: 892 rlus; Analyte rlus [23]: 357000 rlus; Analyte rlus [24]: 1240 rlus; Analyte rlus [25]: 821 rlus; Analyte rlus [26]: 821 rlus; Analyte rlus [27]: 821 rlus; Analyte rlus [28]: 886 rlus; Analyte rlus [29]: 886 rlus; Analyte rlus [30]: 886 rlus; % Cross-reactivity [40]: < 1%; % Cross-reactivity [41]: -0.4%; % Cross-reactivity [42]: 0.3%; % Cross-reactivity [43]: 0.2%; % Cross-reactivity [44]: 0.3%; % Cross-reactivity [45]: 0%; % Cross-reactivity [46]: 0.2%; % Cross-reactivity [47]: 0%; % Cross-reactivity [48]: 0.1% | anti-human NT-proBNP/anti-human proBNP labeled monoclonal antibody 24E11 (HyTest, Turku, Finland) |
| 1800 | 1980 | 2180 | 1880 | 2000 | 1820 | 1260 | 21200 | 1490 | 2010 | 57200 | 1540 | 1860 | 2060 | 1880 | 1790 | 2080 | 1960 | 1580 | 312000 | Analyte rlus [21]: 2190 rlus; Analyte rlus [22]: 1450 rlus; Analyte rlus [23]: 662000 rlus; Analyte rlus [24]: 3360 rlus; Analyte rlus [25]: 1940 rlus; Analyte rlus [26]: 1940 rlus; Analyte rlus [27]: 1940 rlus; Analyte rlus [28]: 1340 rlus; Analyte rlus [29]: 1340 rlus; Analyte rlus [30]: 1340 rlus; % Cross-reactivity [40]: < 1%; % Cross-reactivity [41]: -0.4%; % Cross-reactivity [42]: 0.7%; % Cross-reactivity [43]: 1.2%; % Cross-reactivity [44]: 0.4%; % Cross-reactivity [45]: 0.1%; % Cross-reactivity [46]: 0.3%; % Cross-reactivity [47]: 0%; % Cross-reactivity [48]: 0.3% | anti-human NT proBNP/anti-human proBNP monoclonal antibody 15C4 (HyTest, Turku, Finland) |
